Reference: the supplement of paper PMC9112550, “Optimization of the antimicrobial peptide Bac7 by deep mutational scanning” (BMC Biology, 2022)

Tested on: Escherichia coli TOP10
Test: shrunken log2 fold change of peptide-encoding DNA abundance (4.5 h post-induction vs induction); higher = less antimicrobial activity (less host growth inhibition)
Conditions: time post-induction: 4.5 h; library: site-saturation at positions 5, 18, 19, 20
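Also: peptides expressed intracellularly from a pBAD plasmid library in pooled LB shake-flask culture, induced with 0.3% L-arabinose, DNA abundance read by NGS, three biological replicates, DESeq2 with apeglm shrinkage.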

Sequence	shrunken log2 fold change
RRIRDRPPRLPRPRPRPCRSPRP	-0.0116
RRIRCRPPRLPRPRPRPMLSPRP	-0.202
RRIRTRPPRLPRPRPRPKHQPRP	0.219
RRIRKRPPRLPRPRPRPWCAPRP	0.113
RRIRERPPRLPRPRPRPYLLPRP	-0.165
RRIRDRPPRLPRPRPRPVGVPRP	0.189
RRIRHRPPRLPRPRPRPVCVPRP	-0.216
RRIRVRPPRLPRPRPRPCGPPRP	-0.0876
RRIRKRPPRLPRPRPRPQMIPRP	-0.14
RRIRLRPPRLPRPRPRPWVFPRP	0.163
RRIRRRPPRLPRPRPRPYVRPRP	-0.867
RRIRLRPPRLPRPRPRPEGEPRP	0.624
RRIRERPPRLPRPRPRPFIIPRP	-0.769
RRIRIRPPRLPRPRPRPMTTPRP	0.0113
RRIRWRPPRLPRPRPRPRITPRP	0.00862
RRIRERPPRLPRPRPRPRQPPRP	0.273
RRIRHRPPRLPRPRPRPYNKPRP	-0.681
RRIRRRPPRLPRPRPRPAYWPRP	0.135
RRIRERPPRLPRPRPRPHVDPRP	-0.00242
RRIRDRPPRLPRPRPRPTAWPRP	1.51
RRIRFRPPRLPRPRPRPRRWPRP	0.934
RRIRQRPPRLPRPRPRPTRPPRP	1.05
RRIRWRPPRLPRPRPRPDWYPRP	-0.268
RRIRQRPPRLPRPRPRPKCFPRP	-0.25
RRIRVRPPRLPRPRPRPIYTPRP	-0.279

Sequence	shrunken log2 fold change
RRIRLRPPRLPRPRPRPKKPPRP	0.0873
RRIRHRPPRLPRPRPRPGWSPRP	0.0123
RRIRTRPPRLPRPRPRPSHYPRP	-1.32
RRIRSRPPRLPRPRPRPKTFPRP	-0.24
RRIRHRPPRLPRPRPRPRKCPRP	-0.116
RRIRSRPPRLPRPRPRPIRHPRP	-0.0283
RRIRQRPPRLPRPRPRPMNEPRP	-0.0541
RRIRGRPPRLPRPRPRPTCIPRP	0.351
RRIRIRPPRLPRPRPRPSGMPRP	-0.433
RRIRGRPPRLPRPRPRPIIEPRP	0.863
RRIRNRPPRLPRPRPRPRVDPRP	0.0415
RRIRFRPPRLPRPRPRPEWWPRP	0.0105
RRIRYRPPRLPRPRPRPFMFPRP	-0.861
RRIRMRPPRLPRPRPRPGSPPRP	0.136
RRIRARPPRLPRPRPRPNVWPRP	0.537
RRIRHRPPRLPRPRPRPRFDPRP	-0.163
RRIRCRPPRLPRPRPRPQCAPRP	0.166
RRIRQRPPRLPRPRPRPEGDPRP	0.00223
RRIRHRPPRLPRPRPRPCQWPRP	-0.0469
RRIRQRPPRLPRPRPRPISFPRP	-0.0842
RRIRPRPPRLPRPRPRPSDFPRP	-0.42
RRIRTRPPRLPRPRPRPMFAPRP	-0.0818
RRIRWRPPRLPRPRPRPYPAPRP	-0.0239
RRIRGRPPRLPRPRPRPGRCPRP	1.09
RRIRMRPPRLPRPRPRPWPIPRP	-0.00141

Sequence	shrunken log2 fold change
RRIRLRPPRLPRPRPRPVCYPRP	-0.156
RRIRYRPPRLPRPRPRPATAPRP	0.132
RRIRVRPPRLPRPRPRPYKVPRP	-0.0222
RRIRARPPRLPRPRPRPPLQPRP	0.557
RRIRARPPRLPRPRPRPVEEPRP	1.03
RRIRKRPPRLPRPRPRPRLPPRP	0.768
RRIRKRPPRLPRPRPRPTKPPRP	0.221
RRIRTRPPRLPRPRPRPNMKPRP	-0.526
RRIRWRPPRLPRPRPRPNCFPRP	-0.0571
RRIRKRPPRLPRPRPRPKNHPRP	0.109
RRIRCRPPRLPRPRPRPRPGPRP	0.733
RRIRCRPPRLPRPRPRPKWFPRP	0.0996
RRIRDRPPRLPRPRPRPLTWPRP	0.24
RRIRQRPPRLPRPRPRPEWYPRP	0.0539
RRIRMRPPRLPRPRPRPLVGPRP	0.73
RRIRIRPPRLPRPRPRPLQDPRP	-0.31
RRIRNRPPRLPRPRPRPIIMPRP	-0.729
RRIRIRPPRLPRPRPRPGGIPRP	-0.279
RRIRYRPPRLPRPRPRPKWIPRP	-0.863
RRIRIRPPRLPRPRPRPQLGPRP	-0.0971
RRIRDRPPRLPRPRPRPKNQPRP	-0.076
RRIRCRPPRLPRPRPRPVQKPRP	-0.0201
RRIRIRPPRLPRPRPRPGQKPRP	-0.0432
RRIRPRPPRLPRPRPRPQCSPRP	-0.0986
RRIRERPPRLPRPRPRPPEGPRP	0.233

Sequence	shrunken log2 fold change
RRIRLRPPRLPRPRPRPSPLPRP	-0.192
RRIRMRPPRLPRPRPRPLSMPRP	-0.289
RRIRFRPPRLPRPRPRPWIGPRP	-0.398
RRIRARPPRLPRPRPRPGHKPRP	-0.197
RRIRMRPPRLPRPRPRPGHFPRP	0.274
RRIRGRPPRLPRPRPRPSKNPRP	0.619
RRIRMRPPRLPRPRPRPAGLPRP	0.47
RRIRCRPPRLPRPRPRPPYDPRP	-0.0699
RRIRQRPPRLPRPRPRPWACPRP	-0.0783
RRIRARPPRLPRPRPRPRENPRP	1.06
RRIRIRPPRLPRPRPRPFGFPRP	-0.694
RRIRWRPPRLPRPRPRPAQLPRP	1.63
RRIRYRPPRLPRPRPRPRCCPRP	-0.233
RRIRARPPRLPRPRPRPIYYPRP	-0.182
RRIRWRPPRLPRPRPRPKPDPRP	0.115
RRIRGRPPRLPRPRPRPAVAPRP	0.813
RRIRWRPPRLPRPRPRPPSDPRP	0.184
RRIRLRPPRLPRPRPRPSENPRP	0.124
RRIRGRPPRLPRPRPRPNSEPRP	0.295
RRIRTRPPRLPRPRPRPMSHPRP	-0.238
RRIRSRPPRLPRPRPRPCRGPRP	-0.128
RRIRYRPPRLPRPRPRPQVKPRP	-0.318
RRIRPRPPRLPRPRPRPVLMPRP	-0.161
RRIRARPPRLPRPRPRPNKDPRP	-0.294
RRIRERPPRLPRPRPRPNWCPRP	-0.0117

Sequence	shrunken log2 fold change
RRIRDRPPRLPRPRPRPDHTPRP	0.0303
RRIRPRPPRLPRPRPRPAGKPRP	-0.0291
RRIRMRPPRLPRPRPRPQDIPRP	-0.0524
RRIRKRPPRLPRPRPRPIKYPRP	0.0425
RRIRNRPPRLPRPRPRPQMNPRP	-0.614
RRIRCRPPRLPRPRPRPIKKPRP	-0.0497
RRIRQRPPRLPRPRPRPSNFPRP	-0.621
RRIRIRPPRLPRPRPRPIQPPRP	-0.044
RRIRTRPPRLPRPRPRPRAIPRP	0.196
RRIRGRPPRLPRPRPRPTFQPRP	0.59
RRIRARPPRLPRPRPRPLRHPRP	0.619
RRIRIRPPRLPRPRPRPMRVPRP	0.109
RRIRWRPPRLPRPRPRPMLAPRP	1
RRIRLRPPRLPRPRPRPMIAPRP	-0.141
RRIRGRPPRLPRPRPRPFFMPRP	0.374
RRIRMRPPRLPRPRPRPDVAPRP	0.0335
RRIRGRPPRLPRPRPRPTLNPRP	0.835
RRIRPRPPRLPRPRPRPNNIPRP	-0.848
RRIRWRPPRLPRPRPRPNAAPRP	0.81
RRIRLRPPRLPRPRPRPICIPRP	-0.579
RRIRGRPPRLPRPRPRPWVCPRP	0.0844
RRIRRRPPRLPRPRPRPWRLPRP	0.289
RRIRSRPPRLPRPRPRPIALPRP	-0.385
RRIRRRPPRLPRPRPRPARTPRP	0.35
RRIRTRPPRLPRPRPRPFVFPRP	-0.295

Sequence	shrunken log2 fold change
RRIRNRPPRLPRPRPRPITWPRP	-0.0587
RRIRWRPPRLPRPRPRPDVKPRP	-0.26
RRIRQRPPRLPRPRPRPWTSPRP	0.0602
RRIRKRPPRLPRPRPRPHWSPRP	0.139
RRIRSRPPRLPRPRPRPQHIPRP	-1.21
RRIRARPPRLPRPRPRPSTDPRP	1.08
RRIRQRPPRLPRPRPRPLICPRP	-0.0973
RRIRFRPPRLPRPRPRPWIHPRP	-0.804
RRIRCRPPRLPRPRPRPIREPRP	-0.0298
RRIRIRPPRLPRPRPRPDKLPRP	-0.275
RRIRARPPRLPRPRPRPDKWPRP	-0.0676
RRIRVRPPRLPRPRPRPATLPRP	-0.00452
RRIRKRPPRLPRPRPRPRCIPRP	-0.187
RRIRWRPPRLPRPRPRPDERPRP	-0.00133
RRIRARPPRLPRPRPRPFIYPRP	-0.264
RRIRQRPPRLPRPRPRPCDHPRP	0.00902
RRIRSRPPRLPRPRPRPMTEPRP	0.0273
RRIRYRPPRLPRPRPRPMTPPRP	-0.0195
RRIRPRPPRLPRPRPRPTWNPRP	0.00306
RRIRMRPPRLPRPRPRPHFLPRP	-0.235
RRIRNRPPRLPRPRPRPDQNPRP	-0.017
RRIRFRPPRLPRPRPRPGLYPRP	-0.171
RRIRFRPPRLPRPRPRPWGQPRP	0.0397
RRIRMRPPRLPRPRPRPMQPPRP	-0.000921
RRIRDRPPRLPRPRPRPQGRPRP	-0.0642
